Assay results reported in patent US20230227534A1, “METHOD FOR GENERATING VARIANTS OF A PROTEIN” (ECOLE POLYTECHNIQUE FEDERALE DE LAUSANNE (EPFL), priority 2019, published 2023).
Where a chain is given by its changes, count along the chain named. Names may count otherwise.

B1: M257Y.I305A: opsin (rhodopsin) double mutant, M257Y on TMH6 and I305A on TMH7 (protein, UniProt P02699 1-348, looked up, variant M257Y I305A)
Rhodopsin: MNGTEGPNFYVPFSNKTGVVRSPFEAPQYYLAEPWQFSMLAAYMFLLIMLGFPINFLTLYVTVQHKKLRTPLNYILLNLAVADLFMVFGGFTTTLYTSLHGYFVFGPTGCNLEGFFATLGGEIALWSLVVLAIERYVVVCKPMSNFRFGENHAIMGVAFTWVMALACAAPPLVGWSRYIPEGMQCSCGIDYYTPHEETNNESFVIYMFVVHFIIPLIVIFFCYGQLVFTVKEAAAQQQESATTQKAEKEVTRMVIIYVIAFLICWLPYAGVAFYIFTHQGSDFGPIFMTIPAFFAKTSAVYNPVAYIMMNKQFRNCMVTTLCCGKNPLGDDEASTTVSKTETSQVAPA
B2: M257Y: opsin (rhodopsin) mutant, M257Y on TMH6 (protein, UniProt P02699 1-348, looked up, variant M257Y)
Rhodopsin: B1 Rhodopsin with A305I
B3: K231E.E232I.T251R: opsin (rhodopsin) ICL3 triple mutant (protein, UniProt P02699 1-348, looked up, variant K231E E232I T251R)
Rhodopsin: B1 Rhodopsin with K231E, E232I, T251R, Y257M, A305I

Tested on: transducin
Assay: transducin activation by designed opsin mutants (constitutive and light-induced activity)
Assay type: biochemical
Settings: data not shown

| Molecule | rate of transducin activation (compared to M257Y alone) | constitutive activity compared to WT opsin | constitutive activity as share of the light-induced maximal activity |
| --- | --- | --- | --- |
| B1 | higher | much larger |  |
| B2 |  | much larger |  |
| B3 |  | dramatically increased | higher than 40% |
